Experimental data as given in patent US20180002383A1.

Assays:
[1] = target: human GLUT-1 glucose transporter, endogenous on cells (the 'HTLV receptor' on HeLa, 293T, Jurkat cells and human erythrocytes) (human) (UniProt P11166); assay: cell-based or functional assay
[2] = target: human GLUT-1 glucose transporter, endogenous on cells (the 'HTLV receptor' on HeLa, 293T, Jurkat cells and human erythrocytes) (human) (UniProt P11166)

human GLUT-1 glucose transporter, endogenous on cells (the 'HTLV receptor' on HeLa, 293T, Jurkat cells and human erythrocytes) (human), sequence (P11166 whole entry): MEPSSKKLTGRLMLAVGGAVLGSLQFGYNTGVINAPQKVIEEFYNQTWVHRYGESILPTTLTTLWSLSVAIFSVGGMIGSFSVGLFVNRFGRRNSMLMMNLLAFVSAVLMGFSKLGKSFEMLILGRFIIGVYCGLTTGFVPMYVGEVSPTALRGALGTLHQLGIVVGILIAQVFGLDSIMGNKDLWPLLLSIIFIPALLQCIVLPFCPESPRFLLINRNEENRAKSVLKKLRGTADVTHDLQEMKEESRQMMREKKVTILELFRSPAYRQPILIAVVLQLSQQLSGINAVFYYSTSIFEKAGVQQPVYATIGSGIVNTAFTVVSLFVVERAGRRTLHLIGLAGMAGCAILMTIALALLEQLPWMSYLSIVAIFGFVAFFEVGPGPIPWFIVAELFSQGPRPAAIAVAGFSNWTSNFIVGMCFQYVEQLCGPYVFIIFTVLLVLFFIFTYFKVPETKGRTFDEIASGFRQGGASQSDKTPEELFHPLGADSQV

Substance | Lactate accumulation in culture supernatant [1] | fold increase of binding after overnight culture without glucose [2] | 2-deoxyglucose uptake (fold decrease) [1] | HTLV titers (infection of 293T cells by MLV particles pseudotyped with HTLV-2 envelope) [1]
H183FEnv, non-syncytial chimeric envelope with the N-terminal 183 amino acids of the HTLV-1 receptor | 3 fold lower | – | – | –
HTLV-1 RBD (H1RBD), first 215 residues of HTLV-1 SU fused to a C-terminal rabbit IgG Fc tag (rFc) (Fc fusion) | 3 fold lower | 2 fold | 4 | –
HTLV-2 RBD (H2RBD), first 178 residues of HTLV2-SU fused to a C-terminal rabbit IgG Fc tag (rFc) (from UniProt P01868 98-324) (Fc fusion) | – | – | 4 | 2 logs
